Assay results reported in US20160297889A1 (TORAY INDUSTRIES, published 2016).
Positions count from the first letter of the chain named.

T1: CAPRIN-1 protein expressed on the membrane surface of human cancer cells (human, UniProt Q14444 2-709)
T1 sequence (looked up): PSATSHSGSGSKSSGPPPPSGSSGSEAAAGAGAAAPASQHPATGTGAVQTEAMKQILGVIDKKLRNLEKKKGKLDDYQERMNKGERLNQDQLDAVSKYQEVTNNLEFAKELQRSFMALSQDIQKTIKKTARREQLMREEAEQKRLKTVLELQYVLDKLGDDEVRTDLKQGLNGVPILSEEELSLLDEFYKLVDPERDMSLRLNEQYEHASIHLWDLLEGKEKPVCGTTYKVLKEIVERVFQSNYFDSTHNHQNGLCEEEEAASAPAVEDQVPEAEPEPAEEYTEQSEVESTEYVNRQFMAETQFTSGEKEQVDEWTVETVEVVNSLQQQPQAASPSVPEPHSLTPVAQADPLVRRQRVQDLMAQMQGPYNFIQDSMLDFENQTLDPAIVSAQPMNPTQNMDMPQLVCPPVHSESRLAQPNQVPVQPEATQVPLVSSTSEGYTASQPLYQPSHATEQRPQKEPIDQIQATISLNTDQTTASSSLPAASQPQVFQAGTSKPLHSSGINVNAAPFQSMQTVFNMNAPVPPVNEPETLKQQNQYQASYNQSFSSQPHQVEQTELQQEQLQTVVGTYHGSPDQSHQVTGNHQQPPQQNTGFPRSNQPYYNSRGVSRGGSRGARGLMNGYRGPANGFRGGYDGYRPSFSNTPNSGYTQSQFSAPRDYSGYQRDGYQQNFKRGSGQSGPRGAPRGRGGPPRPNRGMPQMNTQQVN

B1: humanized antibody #4 (antibody, V domains shown)
VH: EVQLVESGGGLVQPGGSLRLSCAASGFSLSSHSLGWVRQAPGKGLEWIGDIRSGGSAYYANWAKGRFTISRDNSKNTLYLQMNSLRAEDTAVYFCTRTNGPSDLTNRLDLWGQGTLVTVSS
VL: EIVLTQSPSSLSASVGDRVTINCQASQSLYNNENLAWFQQKPGKVPKRLIYGASTLASGVSSRFSGSGSGTEFTLTISNLQPEDFATYYCLGEFSCGSADCFAFGGGTKVEIK
B2: humanized antibody #5 (antibody, V domains shown)
VH: B1 VH
VL: B1 VL with I2Q, T87I

Molecular target: T1, CAPRIN-1 protein expressed on the …
Test: cell-based or functional assay

Binder | ADCC cytotoxic activity (51Cr release) on 22Rv1 [%] | ADCC cytotoxic activity (51Cr release) on A-673 [%] | ADCC cytotoxic activity (51Cr release) on BT-474 [%] | ADCC cytotoxic activity (51Cr release) on Caki-2 [%] | ADCC cytotoxic activity (51Cr release) on FaDu [%] | ADCC cytotoxic activity (51Cr release) on G-361 [%] | ADCC cytotoxic activity (51Cr release) on HEC-1-A [%] | ADCC cytotoxic activity (51Cr release) on HT-29 [%] | ADCC cytotoxic activity (51Cr release) on HT-1080 [%] | ADCC cytotoxic activity (51Cr release) on HT-1376 [%] | ADCC cytotoxic activity (51Cr release) on Hep3B [%] | ADCC cytotoxic activity (51Cr release) on IM-9 [%] | ADCC cytotoxic activity (51Cr release) on MDA-MB-361 [%] | ADCC cytotoxic activity (51Cr release) on NCI-H2452 [%] | ADCC cytotoxic activity (51Cr release) on NCI-N87 [%] | ADCC cytotoxic activity (51Cr release) on NT/D1 [%] | ADCC cytotoxic activity (51Cr release) on OCI-AML5 [%] | ADCC cytotoxic activity (51Cr release) on OE33 [%] | ADCC cytotoxic activity (51Cr release) on Panc10.5 [%] | ADCC cytotoxic activity (51Cr release) on QG56 [%] | other results
B1 | ≥ 45 | ≥ 46 | ≥ 50 | ≥ 33 | ≥ 40 | ≥ 21 | ≥ 45 | ≥ 40 | ≥ 25 | ≥ 40 | ≥ 25 | ≥ 30 | ≥ 45 | ≥ 39 | ≥ 38 | ≥ 30 | ≥ 18 | ≥ 33 | ≥ 30 | ≥ 42 | ADCC cytotoxic activity (51Cr release) on RD-ES: ≥ 40%; ADCC cytotoxic activity (51Cr release) on RPM11666: ≥ 36%; ADCC cytotoxic activity (51Cr release) on Ramos: ≥ 18%; ADCC cytotoxic activity (51Cr release) on SKOV3: ≥ 31%; ADCC cytotoxic activity (51Cr release) on T24: ≥ 33%; ADCC cytotoxic activity (51Cr release) on TGBC14TKB: ≥ 30%; ADCC cytotoxic activity (51Cr release) on TT: ≥ 35%; ADCC cytotoxic activity (51Cr release) on U-87MG: ≥ 29%
B2 | ≥ 45 | ≥ 46 | ≥ 50 | ≥ 33 | ≥ 40 | ≥ 21 | ≥ 45 | ≥ 40 | ≥ 25 | ≥ 40 | ≥ 25 | ≥ 30 | ≥ 45 | ≥ 39 | ≥ 38 | ≥ 30 | ≥ 18 | ≥ 33 | ≥ 30 | ≥ 42 | ADCC cytotoxic activity (51Cr release) on RD-ES: ≥ 40%; ADCC cytotoxic activity (51Cr release) on RPM11666: ≥ 36%; ADCC cytotoxic activity (51Cr release) on Ramos: ≥ 18%; ADCC cytotoxic activity (51Cr release) on SKOV3: ≥ 31%; ADCC cytotoxic activity (51Cr release) on T24: ≥ 33%; ADCC cytotoxic activity (51Cr release) on TGBC14TKB: ≥ 30%; ADCC cytotoxic activity (51Cr release) on TT: ≥ 35%; ADCC cytotoxic activity (51Cr release) on U-87MG: ≥ 29%
